± gives the uncertainty stated by the source.
Assay: protein stability index of a GFP-peptide fusion (yeast GPS) (PSI 1-4); higher = more stable; sorted into four equal gates, so the index is relative within each strain
Summary of the method: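 Each library plasmid carries Cherry plus GFP with a tiled 17-residue yeast protein peptide fused downstream, and the pooled library was carried in yeast. Mid-log cultures in leucine-free medium were sorted into four equal gates by GFP/Cherry ratio. Reads from Illumina sequencing of PCR-amplified plasmids from each gate were assigned to strains by barcodes. Per peptide, the protein stability index was computed as the summed products of gate read frequency and gate number.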

Sequence	protein stability index (doa10∆)	protein stability index (pdr5∆)	protein stability index (san1∆)	protein stability index (ubr1∆)
RSTRIRTKSQVIEEDYD [IRR1]	2.89 ± 0.15	3.22 ± 0.082	3.42 ± 0.078	3.43 ± 0.11
IQDTLRTGSQSPPSSSQ [MED7]	2.81 ± 0.044	2.91 ± 0.05	2.77 ± 0.043	2.89 ± 0.032
MKANPALYVLRERIRKG [PRP8]	2.47 ± 0.23	2.87 ± 0.11	2.66 ± 0.12	2.41 ± 0.29
MPVAPTMEVKSFPILDQ [YMR129W/POM152]	1.36 ± 0.1	1.29 ± 0.11	1.2 ± 0.2	1.22 ± 0.093
KSGKTIVITSITGGIIE [RRP43]	1.6 ± 0.072	1.84 ± 0.077	2.07 ± 0.1	1.78 ± 0.1
GVSLLIAGHDEFNGFSL [PRE8]	1.99 ± 0.18	2.18 ± 0.1	1.97 ± 0.1	2.07 ± 0.093
LGMMYEQKLIDQHVINI [YCS4]	2.08 ± 0.061	2.28 ± 0.051	2.21 ± 0.064	2.08 ± 0.05
PRLDAQAIKEASYVNIP [RPS0B]	2.88 ± 0.041	2.84 ± 0.039	2.79 ± 0.044	2.52 ± 0.031
SALCILKEQELVLYDAE [BRR2]	2.47 ± 0.16	2.72 ± 0.12	2.25 ± 0.11	2.52 ± 0.1
KVIDLDTKLKAHELQSE [YIL149C/MLP2]	2.55 ± 0.055	2.73 ± 0.053	2.58 ± 0.059	2.69 ± 0.042
ISTVIEVNREEAIGFIR [SMC3]	2.93 ± 0.21	2.65 ± 0.11	2.86 ± 0.16	2.57 ± 0.088
GCLSVLYQSKGRYMEAL [SRP68]	2.83 ± 0.13	3.04 ± 0.18	2.76 ± 0.21	
VDESLLSTLPAGKSLVS [QCR2]	2.65 ± 0.15	2.81 ± 0.22	1.85 ± 0.26	2.41 ± 0.13
GELKRGNESVKPQFENH [MED11]	3.34 ± 0.18	3.21 ± 0.089	2.98 ± 0.11	2.97 ± 0.16
SLGDGTNYYLTTARNDL [CSL4]	2.66 ± 0.068	2.71 ± 0.068	2.83 ± 0.049	2.91 ± 0.1
KSSSNRSCVSNSNENGT [RPN4]	3.02 ± 0.06	3.08 ± 0.07	3.01 ± 0.05	3.03 ± 0.048
RSNQYQRGKMHGLKQLR [NUT2]	2.67 ± 0.1	2.91 ± 0.078	1.48 ± 0.28	1.74 ± 0.076
YASLKLPNQIPGEYITT [YMR129W/POM152]	1.97 ± 0.049	2.19 ± 0.059	2.07 ± 0.057	2.09 ± 0.036
FAAILVLLVLPFTDRSV [COB]	2.88 ± 0.081	1.3 ± 0.095	1.54 ± 0.15	1.13 ± 0.065
GCIPGNRKRIVTLRKSL [RPL3]	1.38 ± 0.069	1.5 ± 0.083	1.6 ± 0.2	1.26 ± 0.061
LGRLSVRELVEKIDGMD [RPC82]	3.08 ± 0.19	3.4 ± 0.26	3.23 ± 0.11	3.3 ± 0.063
GSLALLKLSMADYNGAL [POP4]	2.33 ± 0.046	2.67 ± 0.058	2.48 ± 0.054	2.38 ± 0.037
NLQQQQQQQIQVPLQQT [YGR119C/NUP57]	2.56 ± 0.13	2.76 ± 0.078	2.16 ± 0.18	3.03 ± 0.11
FTNIISRNKALELNLSV [YJL039C/NUP192]	2.64 ± 0.11	2.78 ± 0.087	2.62 ± 0.12	2.69 ± 0.088
KKCLKLAYENKITDKED [POP4]	2.698 ± 0.022	2.785 ± 0.027	2.797 ± 0.02	3.032 ± 0.025
PTVNRVPNYEVSEKAFL [RPN7]	1.14 ± 0.12	1.68 ± 0.1	1.79 ± 0.22	1.18 ± 0.17

Sequence	protein stability index (doa10∆)	protein stability index (pdr5∆)	protein stability index (san1∆)	protein stability index (ubr1∆)
NTIGSVHGKAPMLMANN [SSN3]	1.54 ± 0.18	1.54 ± 0.11	1.48 ± 0.19	1.89 ± 0.19
THNSYEKACQVLKYMLL [RPN6]	2.18 ± 0.076	2.44 ± 0.073	2.23 ± 0.087	3.26 ± 0.071
LLQLKYFSNKTSTGIIR [POP5]	2.46 ± 0.19	1.84 ± 0.13	1.35 ± 0.29	1.98 ± 0.062
HDAIFSIYKYIHLNELL [SNF12]	2.31 ± 0.051	2.43 ± 0.046	1.95 ± 0.074	2.01 ± 0.038
QTFEAKLHFKDTKPFLN [NUT1]	2.4 ± 0.074	2.87 ± 0.12	2.62 ± 0.059	2.67 ± 0.043
AVKYGLNHVVALIENKK [RPL8A]	2.26 ± 0.19	2.48 ± 0.12		2.45 ± 0.067
QLLKEDSEKRNKYAAML [RRP45]	3.13 ± 0.11	2.81 ± 0.089	2.75 ± 0.18	2.97 ± 0.05
IANFSRAGKYELVKSYS [YJR042W/NUP85]	2.25 ± 0.094	2.09 ± 0.074	1.28 ± 0.13	1.45 ± 0.06
DTLCGIRKLTLRDTFIE [RPO21]	2.91 ± 0.085	1.58 ± 0.058	1.26 ± 0.1	1.46 ± 0.056
MIRLLGSESDDSEGSIK [ECM29]	2.67 ± 0.21		2.54 ± 0.26	3.4 ± 0.25
DKLELYVLRNVLRIPEE [MTW1]	3 ± 0.13	2.45 ± 0.084	2.94 ± 0.076	3.41 ± 0.12
REQASKSKKSWLNRLNN [YMR153W/NUP53]	2.31 ± 0.11	2.45 ± 0.099	1.62 ± 0.15	2.92 ± 0.063
IGVRCYEAYPNTSLPPS [FAS1]	2.29 ± 0.036	2.33 ± 0.032	2.59 ± 0.034	2.54 ± 0.028
LWPVAIGLIALSATGTR [YJR042W/NUP85]	1.75 ± 0.25		1.36 ± 0.23	
KNAANTEGHKGHEELKR [ISW2]	3.43 ± 0.086	3.16 ± 0.081	3.2 ± 0.098	3.35 ± 0.061
LIQKGYLQRGDDGESYA [CDC53]	3.68 ± 0.15	2.68 ± 0.1	3.34 ± 0.065	3.12 ± 0.066
YLSDLKQFFQMTPLLVN [PCI8]	1.69 ± 0.043	1.74 ± 0.044	1.51 ± 0.066	1.51 ± 0.026
ELEKKYHGNECEINYYE [SRB8]	3.04 ± 0.11	3.19 ± 0.086	3.26 ± 0.064	3.17 ± 0.066
QSRRYNLRRHSDIVLDK [SIN4]	3.07 ± 0.05	3.21 ± 0.034	3.131 ± 0.028	3.14 ± 0.035
DDKLAYIRVNHADKDTF [POP8]	2.9 ± 0.059	2.58 ± 0.059	2.72 ± 0.063	2.62 ± 0.049
VEFCRNINSTDKSIDTS [YML103C/NUP188]	3.08 ± 0.11	2.93 ± 0.091	3.39 ± 0.097	3.12 ± 0.053
QQQQQQQQQQQQQQQQQ [GAL11]	2.57 ± 0.032	2.78 ± 0.028	2.661 ± 0.026	2.903 ± 0.023
GRGLWNPSYPGMMSTTG [YJL039C/NUP192]	2.99 ± 0.092	3.12 ± 0.053	3.14 ± 0.074	3.1 ± 0.097
KICRGRMNTIITHPGKM [SIR4]	3.36 ± 0.28		3.23 ± 0.16	
GKDLSPAINYTKLKNAV [QCR2]	1.91 ± 0.064	1.64 ± 0.06	2.15 ± 0.094	1.54 ± 0.048

Source: the supplement of paper PMC9732359
